Here are results for one molecule from patent publication US20230310634A1, “ANTI-HUMAN VISTA ANTIBODIES AND USE THEREOF” (IMMUNEXT, INC., priority 2020, published 2023).

Test [1] has as its target T1, human VISTA on cells (human) (UniProt Q9H7M9).
T1 sequence: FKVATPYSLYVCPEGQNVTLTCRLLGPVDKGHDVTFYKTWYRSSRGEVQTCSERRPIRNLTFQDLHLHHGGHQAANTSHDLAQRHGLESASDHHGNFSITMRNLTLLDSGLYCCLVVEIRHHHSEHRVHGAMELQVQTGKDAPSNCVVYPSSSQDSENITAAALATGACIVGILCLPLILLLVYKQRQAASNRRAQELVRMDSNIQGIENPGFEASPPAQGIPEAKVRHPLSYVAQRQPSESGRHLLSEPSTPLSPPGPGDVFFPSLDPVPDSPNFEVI
Nature of the test: flow cytometry with quantification beads, CD4+ T cells in human whole blood, n=3 donors.

Test [2] has as its target T1, human VISTA on cells (human). Nature of the test: flow cytometry with quantification beads, CD20+ B cells in human whole blood, n=3 donors.
For test [3] the target is unchanged. Nature of the test: flow cytometry with quantification beads, CD66b+ neutrophils in human whole blood, n=3 donors.
The target is the same in test [4]. Nature of the test: flow cytometry with quantification beads, CD8+ T cells in human whole blood, n=3 donors.
For test [5] the target is unchanged. Nature of the test: flow cytometry with quantification beads, Tregs in human whole blood, n=3 donors.
Test [6] shares this target. Nature of the test: flow cytometry with quantification beads, CD4+ T cells of human PBMC, n=5 donors.
Test [7] shares this target. Nature of the test: flow cytometry with quantification beads, CD4+ CD25+ CD127low Tregs of human PBMC, n=5 donors.
Test [8] shares this target. Nature of the test: flow cytometry with quantification beads, CD14+ monocytes of human PBMC, n=5 donors.
Test [9] shares this target. Nature of the test: flow cytometry with quantification beads, CD8+ T cells of human PBMC, n=5 donors.
For test [10] the target is unchanged. Nature of the test: flow cytometry with quantification beads, CD14+ monocytes in human whole blood, n=3 donors.

B1: Anti-VISTA GG8 (antibody, V domains shown)
VH: EVQLQQSGPELVKPGTSMKISCKASGYSFTGYTMNWVRQSHGKNLEWIGLINPYNGGINYNQKFKARATLTVDKSSSTAYMELLSLTSEDSAVYYCARRTLLRPYFFDYWGQGTTLTVSS
VL: DIVLTQSPASLAVSLGQRATISCRASQSVSTSTFSYMHWYQQKPGQPPKLLIKYASNLESGVPARFSGSGSGTDFTLNIHPVEEEDTATYYCQHSWEIPYTFGGGTKLEIK
modifications: Alexa Fluor 647 dye conjugated to the antibody (p-1554); attachment sites not given
For B1, the antibody binding capacity (ABC) in [1] came to 8720 molecules; in test [4] it was 5010 molecules; in test [5], 7490 molecules; in test [6], 5940 molecules; in test [7], 6640 molecules; in test [9] it was 9960 molecules. The antibody binding capacity (ABC) (ABC (molecules per cell)) in test [2] was determined as 1280; in test [3], 68600; in test [8], 112000; in [10], 224000.
